Square brackets hold non-standard residues; d marks the D form. Ends that are not written are not given here. Peptide text beside a SMILES is read from it. * marks the point of attachment. Dnp = O=[N+]([O-])c1ccc(*)c([N+](=O)[O-])c1; Mca = COc1ccc2c(CC(=O)*)cc(=O)oc2c1
What was measured:
MMP2 = target: T1, MMP2 (Homo sapiens, UniProt P08253); test: Internally quenched peptide probe cleavage assay, MMP2; format: biochemical; conditions: internally quenched peptide probe 20 μM (20 pM in source), 20 nM protease, 37° C.
T1 sequence (P08253 110-660): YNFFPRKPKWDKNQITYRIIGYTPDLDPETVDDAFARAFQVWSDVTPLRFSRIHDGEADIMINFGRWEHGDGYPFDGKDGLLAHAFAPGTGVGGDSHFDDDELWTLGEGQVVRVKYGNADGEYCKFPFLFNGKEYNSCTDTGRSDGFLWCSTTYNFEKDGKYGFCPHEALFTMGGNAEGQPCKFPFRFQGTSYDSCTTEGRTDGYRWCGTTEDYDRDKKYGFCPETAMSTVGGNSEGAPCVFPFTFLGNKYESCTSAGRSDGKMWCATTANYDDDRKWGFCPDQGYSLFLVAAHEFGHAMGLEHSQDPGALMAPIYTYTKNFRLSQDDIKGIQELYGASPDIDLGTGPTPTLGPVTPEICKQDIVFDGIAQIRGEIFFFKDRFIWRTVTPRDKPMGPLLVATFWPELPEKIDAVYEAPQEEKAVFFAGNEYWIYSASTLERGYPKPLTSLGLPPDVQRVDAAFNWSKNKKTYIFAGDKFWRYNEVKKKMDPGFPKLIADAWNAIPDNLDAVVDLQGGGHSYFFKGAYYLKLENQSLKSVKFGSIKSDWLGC
Experimental: (§1) The CMs listed in Table 9 below were presented in an internally quenched peptide probe format, rather than included in an activatable antibody format. […] Cleavability kinetics (i.e., pM/s and kcat/KM (M^-1s^-1)) were determined in 96- or 384-well plate format at 37° C. in the following buffers: 50 mM TRIS-HCl (pH 7.4), 150 mM NaCl, 0.05% Tween 20 for MT-SP1, 50 mM Tris-HCl (pH 7.5), 10 mM CaCl2, 150 mM NaCl, 0.05% (w/v) Brij-35 for MMP2 and MMP9, and 50 mM HEPES (pH 6.8), 10 mM CaCl2, 0.5 mM MgCl2, 0.05% (w/v) Brij-35 for MMP14. Cleavability kinetics were determined on an Infinite 200 PRO (Tecan) multimode plate reader using a fluorescence excitation wavelength of 320 nm and an emission wavelength of 405 nm. […] The CMs listed in Table 12 below were presented in an internally quenched peptide probe format, rather than included in an activatable antibody format. […] Cleavability kinetics (i.e., pM/s) were determined in 96- or 384-well plate format at 37° C. in the following buffers: 50 mM TRIS-HCl (pH 7.4), 150 mM NaCl, 0.05% Tween 20 for MT-SP1, 50 mM Tris-HCl (pH 7.5), 10 mM CaCl2, 150 mM NaCl, 0.05% (w/v) Brij-35 for MMP2 and MMP9, and 50 mM HEPES (pH 6.8), 10 mM CaCl2, 0.5 mM MgCl2, 0.05% (w/v) Brij-35 for MMP14. Cleavability kinetics were determined on an Infinite 200 PRO (Tecan) multimode plate reader using a fluorescence excitation wavelength of 320 nm and an emission wavelength of 405 nm.

MMP14 = MMP14 (Homo sapiens, UniProt P50281); test: Internally quenched peptide probe cleavage assay, MMP14; format: biochemical; conditions: internally quenched peptide probe 20 μM (20 pM in source), 20 nM protease, 37° C.
Experimental: as §1

MMP9 = MMP9 (Homo sapiens, UniProt P14780); test: Internally quenched peptide probe cleavage assay, MMP9; format: biochemical; conditions: internally quenched peptide probe 20 μM (20 pM in source), 20 nM protease, 37° C.
Chain of MMP9 (P14780 94-707): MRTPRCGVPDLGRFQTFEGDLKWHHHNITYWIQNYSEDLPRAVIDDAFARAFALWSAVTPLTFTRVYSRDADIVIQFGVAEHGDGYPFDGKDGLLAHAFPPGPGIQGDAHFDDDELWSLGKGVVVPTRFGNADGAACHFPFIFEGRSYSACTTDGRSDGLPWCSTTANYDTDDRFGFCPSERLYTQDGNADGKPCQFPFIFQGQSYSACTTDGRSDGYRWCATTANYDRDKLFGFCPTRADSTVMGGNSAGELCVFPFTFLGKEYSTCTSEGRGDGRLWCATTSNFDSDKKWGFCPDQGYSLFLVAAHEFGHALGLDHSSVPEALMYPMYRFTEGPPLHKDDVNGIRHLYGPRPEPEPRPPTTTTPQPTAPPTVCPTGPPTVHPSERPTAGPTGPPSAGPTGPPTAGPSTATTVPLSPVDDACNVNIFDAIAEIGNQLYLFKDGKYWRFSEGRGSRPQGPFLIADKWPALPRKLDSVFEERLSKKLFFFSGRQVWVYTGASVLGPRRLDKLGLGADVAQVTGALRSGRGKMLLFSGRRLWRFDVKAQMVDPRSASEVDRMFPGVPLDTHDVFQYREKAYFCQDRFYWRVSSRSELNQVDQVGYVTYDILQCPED
Experimental: as §1

MT-SP1 = target: T2, MT-SP1 (Homo sapiens, UniProt Q9Y5Y6); test: Internally quenched peptide probe cleavage assay, MT-SP1; format: biochemical; conditions: internally quenched peptide probe 20 μM (20 pM in source), 20 nM protease, 37° C.
T2 sequence (Q9Y5Y6 1-855): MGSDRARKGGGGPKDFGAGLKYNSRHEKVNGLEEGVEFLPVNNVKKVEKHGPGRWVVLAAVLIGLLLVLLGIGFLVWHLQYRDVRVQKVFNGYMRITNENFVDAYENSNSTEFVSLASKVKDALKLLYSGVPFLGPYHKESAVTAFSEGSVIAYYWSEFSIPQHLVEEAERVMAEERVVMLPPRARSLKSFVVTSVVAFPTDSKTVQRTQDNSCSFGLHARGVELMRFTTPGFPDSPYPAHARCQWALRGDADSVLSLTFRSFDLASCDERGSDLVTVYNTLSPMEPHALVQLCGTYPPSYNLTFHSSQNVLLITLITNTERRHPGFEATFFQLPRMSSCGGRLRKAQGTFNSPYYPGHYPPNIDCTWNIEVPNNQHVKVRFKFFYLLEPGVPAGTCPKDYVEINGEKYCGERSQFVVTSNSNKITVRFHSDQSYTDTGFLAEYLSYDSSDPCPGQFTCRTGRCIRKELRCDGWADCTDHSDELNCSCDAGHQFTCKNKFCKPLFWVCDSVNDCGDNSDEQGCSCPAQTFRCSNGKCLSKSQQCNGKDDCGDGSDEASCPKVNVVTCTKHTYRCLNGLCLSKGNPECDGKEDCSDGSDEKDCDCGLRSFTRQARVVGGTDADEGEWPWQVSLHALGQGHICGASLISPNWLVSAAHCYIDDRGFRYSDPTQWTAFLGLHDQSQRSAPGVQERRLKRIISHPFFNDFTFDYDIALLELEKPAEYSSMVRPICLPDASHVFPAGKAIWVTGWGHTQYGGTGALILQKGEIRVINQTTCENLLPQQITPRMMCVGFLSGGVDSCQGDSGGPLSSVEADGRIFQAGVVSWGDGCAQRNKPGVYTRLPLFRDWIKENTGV
Experimental: as §1

[1] = system: supernatant from human bone marrow aspirates; test: In situ stability of peptide probes in supernatant from human bone marrow aspirates; conditions: 20 μM peptide probe, 37° C.

Row | Compound | Probe Cleavage (pM/s) MMP2 (MMP2) [pM/s] | Probe Cleavage (pM/s) MMP14 (MMP14) [pM/s] | Probe Cleavage (pM/s) MMP9 (MMP9) [pM/s] | Probe Cleavage (pM/s) MT-SP1 (MT-SP1) [pM/s] | cleavage rate in supernatant from human bone marrow aspirates [1] [pM/s]
1 | HQSRSGAWGLL (Mca-HQSRSGAWGLL-{Lys(DNP)-dR}) | 65.4 | 36.4 | 436 |  | 
2 | PWGLHQSRS (also: MCA, Lys(DNP)-D-Arg labels, places not given here) | 2550 | 5880 | 5150 | 1280 | 302
3 | HQSRSGPWGL (Mca-HQSRSGPWGL-{Lys(DNP)-dR}) [X1 absent] | 94.8 | 27.3 | 705 |  | 
4 | HQSRSAIALYA (also: MCA, Lys(DNP), D-Arg labels, places not given here) [X1 is Y and X2 is A] | 468 | 300 | 255 | 1750 | 
5 | AQSRSGPWGLL (Mca-AQSRSGPWGLL-{Lys(DNP)-dR}) | 726 | 437 |  |  | 
6 | HQSRSGPWGLA (Mca-HQSRSGPWGLA-{Lys(DNP)-dR}) | 410 | 345 |  |  | 
7 | HQSRSGPWGAL (Mca-HQSRSGPWGAL-{Lys(DNP)-dR}) | 61.1 | 0.00 | 5.9 |  | 
8 | COc1ccc2c(CC(=O)N[C@@H](CO)C(=O)N3CCC[C@H]3C(=O)N[C@@H](C)C(=O)NCC(=O)N[C@@H](CC(C)C)C(=O)N[C@@H](CO)C(=O)NCC(=O)N[C@@H](CCCNC(=N)N)C(=O)N[C@@H](CO)C(=O)NCC(=O)N[C@@H](CCCCNc3ccc([N+](=O)[O-])cc3[N+](=O)[O-])C(=O)N[C@H](CCCNC(=N)N)C(=O)O)cc(=O)oc2c1 [reference compound] (Mca-SPAGLSGRSGK(Dnp)[dR]-OH) |  |  |  |  | 2191

Second part, led by results:

Row | Probe Cleavage (pM/s) MMP2 (MMP2) [pM/s] | Probe Cleavage (pM/s) MMP14 (MMP14) [pM/s] | Probe Cleavage (pM/s) MMP9 (MMP9) [pM/s] | Probe Cleavage (pM/s) MT-SP1 (MT-SP1) [pM/s] | Compound | cleavage rate in supernatant from human bone marrow aspirates [1] [pM/s]
9 | 692 | 424 |  |  | HASRSGPWGLL (Mca-HASRSGPWGLL-{Lys(DNP)-dR}) | 
10 | 434 | 92.7 | 328 | 1960 | HQSRSAIALY (also: MCA, Gly-Lys(DNP)-D-Arg labels, places not given here) [X1 is Y] | 
11 |  | 660 |  |  | HQSRSAPWGLL (Mca-HQSRSAPWGLL-{Lys(DNP)-dR}) | 
12 | 594 | 379 |  |  | HQSRAGPWGLL (Mca-HQSRAGPWGLL-{Lys(DNP)-dR}) | 
13 | 76.9 | 95.5 | 41.9 |  | HQSRSAIAL (Mca-HQSRSAIAL-{Lys(DNP)-dR}) | 
14 | 623 | 344 |  |  | HQARSGPWGLL (Mca-HQARSGPWGLL-{Lys(DNP)-dR}) | 
15 | 696 | 335 |  | 8.00 | HQSASGPWGLL (also: MCA, Lys(DNP), D-Arg labels, places not given here) | 
16 |  | 548 |  | 32.0 | HQSRPWGL (also: MCA, Lys(DNP), D-Arg labels, places not given here) | 
17 | 61.6 | 0.00 | 86.5 |  | HQSRSPWG (Mca-HQSRSPWG-{Lys(DNP)-dR}) | 
18 | 4220 | 1280 | 2550 | 11500 | AIALHQSRS (also: MCA, Lys(DNP), D-Arg labels, places not given here) | 
19 | 488 | 475 |  |  | HQSRSGPWALL (Mca-HQSRSGPWALL-{Lys(DNP)-dR}) | 

Reference: patent US12551571B2, “Protease-cleavable substrates and methods of use thereof” (CytomX Therapeutics, Inc., priority 2022, dated 2026)
